# Results reported in PMC4631608 (Journal of structural and functional genomics, 2015).
# Target: the molecule itself
# Test: SEC
protein,measurement,value
M. tuberculosis Rv1496 (natural protein) MMAASHDDDTVDGLATAVRGGDRAALPRAITLVESTRPDHREQAQQLLLRLLPDSGNAHRVGITGVPGVGKSTAIEALGMHLIERGHRVAVLAVDPSSTRTGGSILGDKTRMARLAVHPNAYIRPSPTSGTLGGVTRATRETVVLLEAAGFDVILIETVGVGQSEVAVANMVDTFVLLTLARTGDQLQGIKKGVLELADIVVVNKADGEHHKEARLAARELSAAIRLIYPREALWRPPVLTMSAVEGRGLAELWDTVERHRQVLTGAGEFDARRRDQQVDWTWQLVRDAVLDRVWSNPTVRKVRSELERRVRAGELTPALAAQQILEIANLTDR,stoichiometry N,2
